biological target: Hck (UniProt P08631); assay: phosphorylation enrichment, bacterial display (enrichment ratio); higher = better substrate or ligand; peptides without Tyr show the background
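Also: 11-residue human phosphosite peptides and single-mutation variants displayed on the E. coli surface, counted by deep sequencing, each peptide's frequency after selection divided by its frequency in the unselected input library; frequency after pTyr selection over input frequency; kinase dosed for 20-30% of maximal phosphorylation in three min.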

Chain of Hck (P08631 whole entry, looked up): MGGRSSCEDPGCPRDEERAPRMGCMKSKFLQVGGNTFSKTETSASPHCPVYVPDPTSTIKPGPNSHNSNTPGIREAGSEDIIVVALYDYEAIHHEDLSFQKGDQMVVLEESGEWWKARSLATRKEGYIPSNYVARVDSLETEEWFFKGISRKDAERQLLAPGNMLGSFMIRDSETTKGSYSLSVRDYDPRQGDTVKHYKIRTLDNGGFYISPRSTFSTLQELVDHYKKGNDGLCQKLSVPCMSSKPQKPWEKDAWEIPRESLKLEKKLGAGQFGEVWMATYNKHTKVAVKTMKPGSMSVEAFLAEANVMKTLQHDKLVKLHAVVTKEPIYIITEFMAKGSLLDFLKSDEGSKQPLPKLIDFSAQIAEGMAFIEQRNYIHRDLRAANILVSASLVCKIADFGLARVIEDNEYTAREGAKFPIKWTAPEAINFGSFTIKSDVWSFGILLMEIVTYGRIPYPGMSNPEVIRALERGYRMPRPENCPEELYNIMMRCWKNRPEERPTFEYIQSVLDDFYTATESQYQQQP

Going from GLALRCLSDHS [VWF_Y1584_Y1584C] to PVPKTYDMLNA [PKP2_Y108_K112N], the phosphorylation enrichment rises from 0.59 to 1.07.

First: GLALRYLSDHS [VWF_Y1584]
Second: KTTSGYAGGLS [KRT8_Y419]
The phosphorylation enrichment of the first is higher: 0.549 for the first, 0.289 for the second.

Compared with IGNGYYFHVFS [MYBPC3_Y1136_R1138H], VIGRMYDYHVL [RPF2_Y109] is higher in phosphorylation enrichment: 0.45 for the first, 0.538 for the second.

Compared with ELCSEYRKSRK [SPINK5_Y440], GVTLLYFGRFN [ADGRD1_Y85_YF] is higher in phosphorylation enrichment: 0.412 for the first, 0.541 for the second.

Compared with EQLLDYTRTVQ [INPP5E_Y439_R435Q], SKKSTYQALLD [GANC_Y43] is lower in phosphorylation enrichment: 0.542 for the first, 0.433 for the second.

Compared with KIPGRYYETGS [PAX2_Y72_L69P], EASGIYVKSII [PATJ_Y396] is higher in phosphorylation enrichment: 0.388 for the first, 0.52 for the second.

Going from GGRIDYIAGLV [APRT_Y60_D65V] to KASVDYIRKLQ [MITF_Y360], the phosphorylation enrichment falls from 0.568 to 0.351.

First: RQLEIYRASRP [ERCC4_Y594]
Second: PVLSLYASGRT [ACTA1_Y145_A140P]
The phosphorylation enrichment of the first is lower: 0.316 for the first, 0.768 for the second.

Compared with KILGTYYETGS [PAX2_Y72_R71T], RPGSGYTKIMR [PKLR_Y564_N566K] is lower in phosphorylation enrichment: 0.818 for the first, 0.409 for the second.

First: FMMMRYSQNIR [SDAD1_Y656_V660I]
Second: NSFKYYMSDDI [ATRX_Y204_C200S]
The phosphorylation enrichment of the first is higher: 0.53 for the first, 0.443 for the second.

Going from LTMAPYSSVSL [FAM81A_Y24] to ADEDIYGVLPA [LYNtide_2014], the phosphorylation enrichment rises from 0.495 to 3.51.

Going from SKNFTYIWWLN [PSG4_Y271_YF] to DGTIVYTGLET [USH2A_Y4487], the phosphorylation enrichment rises from 0.435 to 0.773.

Compared with PTQLPYDHKWE [KIT_Y578], LQKNIYSEELR [LMNA_Y211_F206L] is higher in phosphorylation enrichment: 0.87 for the first, 1.49 for the second.

Compared with TALFIYIRPKA [OR10C1_Y258], GHEYIYVDPMQ [PDGFRA_Y574] is higher in phosphorylation enrichment: 0.523 for the first, 3.75 for the second.

First: GRVFVYHLSEQ [ITGAE_Y551_R552H_YF]
Second: RNLDTYQKRLR [PLA2G2D_Y126]
The phosphorylation enrichment of the first is higher: 0.579 for the first, 0.55 for the second.

Going from KNKELYSDLFD [PDE10A_Y300] to KKARAYGPGIE [FLNA_Y287], the phosphorylation enrichment falls from 0.958 to 0.405.

EEALYYLTRVE [SET_Y119_H118Y] gave a phosphorylation enrichment of 4.07.

biological target: Jak2 (UniProt O60674); assay: as above
Sequence (O60674 whole entry, looked up): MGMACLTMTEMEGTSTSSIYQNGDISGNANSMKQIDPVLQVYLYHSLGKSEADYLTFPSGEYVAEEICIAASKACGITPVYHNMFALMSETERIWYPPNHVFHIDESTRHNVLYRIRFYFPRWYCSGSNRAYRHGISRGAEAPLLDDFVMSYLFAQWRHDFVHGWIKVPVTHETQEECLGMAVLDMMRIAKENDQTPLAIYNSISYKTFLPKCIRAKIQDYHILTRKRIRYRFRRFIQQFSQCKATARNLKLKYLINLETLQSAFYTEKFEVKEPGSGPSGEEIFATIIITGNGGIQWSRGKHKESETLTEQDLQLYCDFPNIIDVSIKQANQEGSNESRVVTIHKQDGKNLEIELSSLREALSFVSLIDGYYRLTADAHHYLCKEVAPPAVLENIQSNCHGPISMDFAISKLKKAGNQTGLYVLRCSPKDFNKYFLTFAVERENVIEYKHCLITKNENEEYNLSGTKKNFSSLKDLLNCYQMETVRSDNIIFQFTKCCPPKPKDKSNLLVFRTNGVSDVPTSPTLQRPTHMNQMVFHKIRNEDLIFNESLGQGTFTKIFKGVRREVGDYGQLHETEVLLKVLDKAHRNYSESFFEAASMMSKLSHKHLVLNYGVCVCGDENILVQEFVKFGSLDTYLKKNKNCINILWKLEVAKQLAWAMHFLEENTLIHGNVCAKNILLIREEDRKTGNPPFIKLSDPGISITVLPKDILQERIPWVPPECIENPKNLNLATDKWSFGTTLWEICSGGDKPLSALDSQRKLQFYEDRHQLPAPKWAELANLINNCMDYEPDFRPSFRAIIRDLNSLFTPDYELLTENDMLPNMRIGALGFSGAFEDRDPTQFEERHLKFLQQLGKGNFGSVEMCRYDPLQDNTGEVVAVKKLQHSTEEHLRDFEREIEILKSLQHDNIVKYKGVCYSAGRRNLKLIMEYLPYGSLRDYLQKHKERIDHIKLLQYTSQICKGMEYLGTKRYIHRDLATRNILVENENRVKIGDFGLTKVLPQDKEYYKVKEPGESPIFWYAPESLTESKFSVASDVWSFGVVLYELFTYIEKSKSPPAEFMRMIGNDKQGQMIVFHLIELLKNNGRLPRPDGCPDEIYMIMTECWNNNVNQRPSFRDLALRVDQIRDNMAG

First: GLALRCLSDHS [VWF_Y1584_Y1584C]
Second: PVPKTYDMLNA [PKP2_Y108_K112N]
The phosphorylation enrichment of the first is lower: 0.961 for the first, 1.04 for the second.

Compared with GLALRYLSDHS [VWF_Y1584], KTTSGYAGGLS [KRT8_Y419] is lower in phosphorylation enrichment: 0.898 for the first, 0.373 for the second.

Compared with IGNGYYFHVFS [MYBPC3_Y1136_R1138H], VIGRMYDYHVL [RPF2_Y109] is lower in phosphorylation enrichment: 1.73 for the first, 0.976 for the second.

Compared with ELCSEYRKSRK [SPINK5_Y440], GVTLLYFGRFN [ADGRD1_Y85_YF] is higher in phosphorylation enrichment: 0.474 for the first, 1.32 for the second.

Compared with EQLLDYTRTVQ [INPP5E_Y439_R435Q], SKKSTYQALLD [GANC_Y43] is lower in phosphorylation enrichment: 0.976 for the first, 0.907 for the second.

Compared with KIPGRYYETGS [PAX2_Y72_L69P], EASGIYVKSII [PATJ_Y396] is higher in phosphorylation enrichment: 0.637 for the first, 0.983 for the second.

Compared with GGRIDYIAGLV [APRT_Y60_D65V], KASVDYIRKLQ [MITF_Y360] is lower in phosphorylation enrichment: 0.871 for the first, 0.589 for the second.

Going from RQLEIYRASRP [ERCC4_Y594] to PVLSLYASGRT [ACTA1_Y145_A140P], the phosphorylation enrichment rises from 0.535 to 1.39.

Compared with KILGTYYETGS [PAX2_Y72_R71T], RPGSGYTKIMR [PKLR_Y564_N566K] is lower in phosphorylation enrichment: 0.653 for the first, 0.41 for the second.

Going from FMMMRYSQNIR [SDAD1_Y656_V660I] to NSFKYYMSDDI [ATRX_Y204_C200S], the phosphorylation enrichment falls from 0.955 to 0.871.

First: LTMAPYSSVSL [FAM81A_Y24]
Second: ADEDIYGVLPA [LYNtide_2014]
The phosphorylation enrichment of the first is lower: 0.518 for the first, 1.28 for the second.

Going from SKNFTYIWWLN [PSG4_Y271_YF] to DGTIVYTGLET [USH2A_Y4487], the phosphorylation enrichment falls from 1.26 to 0.901.

First: PTQLPYDHKWE [KIT_Y578]
Second: LQKNIYSEELR [LMNA_Y211_F206L]
The phosphorylation enrichment of the first is higher: 0.68 for the first, 0.508 for the second.

Going from TALFIYIRPKA [OR10C1_Y258] to GHEYIYVDPMQ [PDGFRA_Y574], the phosphorylation enrichment rises from 0.945 to 1.83.

First: GRVFVYHLSEQ [ITGAE_Y551_R552H_YF]
Second: RNLDTYQKRLR [PLA2G2D_Y126]
The phosphorylation enrichment of the first is higher: 0.684 for the first, 0.661 for the second.

Going from KNKELYSDLFD [PDE10A_Y300] to KKARAYGPGIE [FLNA_Y287], the phosphorylation enrichment falls from 0.898 to 0.418.

Work on EEALYYLTRVE [SET_Y119_H118Y] yielded a phosphorylation enrichment of 2.69.

biological target: MERTK (UniProt Q12866); assay: as above
Sequence (Q12866 whole entry, looked up): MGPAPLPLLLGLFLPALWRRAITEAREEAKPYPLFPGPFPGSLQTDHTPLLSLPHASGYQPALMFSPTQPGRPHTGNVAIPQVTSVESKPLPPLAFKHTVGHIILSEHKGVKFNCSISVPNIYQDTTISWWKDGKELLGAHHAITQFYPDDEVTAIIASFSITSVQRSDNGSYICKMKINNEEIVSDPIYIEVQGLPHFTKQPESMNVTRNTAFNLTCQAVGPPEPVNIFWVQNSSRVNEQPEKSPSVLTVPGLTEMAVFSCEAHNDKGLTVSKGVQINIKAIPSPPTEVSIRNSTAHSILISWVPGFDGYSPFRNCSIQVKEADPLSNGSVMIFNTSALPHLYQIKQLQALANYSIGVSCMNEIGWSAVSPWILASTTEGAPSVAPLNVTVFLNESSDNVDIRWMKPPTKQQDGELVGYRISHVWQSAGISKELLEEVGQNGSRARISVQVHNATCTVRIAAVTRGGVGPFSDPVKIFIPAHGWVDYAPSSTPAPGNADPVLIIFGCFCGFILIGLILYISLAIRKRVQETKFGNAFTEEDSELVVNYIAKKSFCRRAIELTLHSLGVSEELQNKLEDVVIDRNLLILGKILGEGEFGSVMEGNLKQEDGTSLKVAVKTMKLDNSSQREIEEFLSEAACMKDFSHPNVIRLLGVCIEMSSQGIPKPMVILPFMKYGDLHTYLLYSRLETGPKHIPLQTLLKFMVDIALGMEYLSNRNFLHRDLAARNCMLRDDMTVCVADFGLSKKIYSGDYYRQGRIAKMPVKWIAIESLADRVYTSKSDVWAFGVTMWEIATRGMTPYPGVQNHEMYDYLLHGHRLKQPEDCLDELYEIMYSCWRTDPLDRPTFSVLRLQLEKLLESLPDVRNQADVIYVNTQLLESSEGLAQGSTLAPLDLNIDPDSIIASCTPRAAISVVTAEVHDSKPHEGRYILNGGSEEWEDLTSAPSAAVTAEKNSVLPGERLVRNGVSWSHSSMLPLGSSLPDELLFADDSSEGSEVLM

Going from GLALRCLSDHS [VWF_Y1584_Y1584C] to PVPKTYDMLNA [PKP2_Y108_K112N], the phosphorylation enrichment rises from 0.422 to 1.14.

Compared with GLALRYLSDHS [VWF_Y1584], KTTSGYAGGLS [KRT8_Y419] is lower in phosphorylation enrichment: 0.38 for the first, 0.3 for the second.

Going from IGNGYYFHVFS [MYBPC3_Y1136_R1138H] to VIGRMYDYHVL [RPF2_Y109], the phosphorylation enrichment rises from 0.503 to 5.17.

Compared with ELCSEYRKSRK [SPINK5_Y440], GVTLLYFGRFN [ADGRD1_Y85_YF] is lower in phosphorylation enrichment: 0.443 for the first, 0.389 for the second.

Going from EQLLDYTRTVQ [INPP5E_Y439_R435Q] to SKKSTYQALLD [GANC_Y43], the phosphorylation enrichment falls from 0.475 to 0.403.

Compared with KIPGRYYETGS [PAX2_Y72_L69P], EASGIYVKSII [PATJ_Y396] is lower in phosphorylation enrichment: 0.573 for the first, 0.438 for the second.

Compared with GGRIDYIAGLV [APRT_Y60_D65V], KASVDYIRKLQ [MITF_Y360] is lower in phosphorylation enrichment: 0.389 for the first, 0.32 for the second.

First: RQLEIYRASRP [ERCC4_Y594]
Second: PVLSLYASGRT [ACTA1_Y145_A140P]
The phosphorylation enrichment of the first is lower: 0.391 for the first, 0.752 for the second.

Going from KILGTYYETGS [PAX2_Y72_R71T] to RPGSGYTKIMR [PKLR_Y564_N566K], the phosphorylation enrichment falls from 1.01 to 0.48.

Compared with FMMMRYSQNIR [SDAD1_Y656_V660I], NSFKYYMSDDI [ATRX_Y204_C200S] is higher in phosphorylation enrichment: 0.414 for the first, 0.451 for the second.

Compared with LTMAPYSSVSL [FAM81A_Y24], ADEDIYGVLPA [LYNtide_2014] is higher in phosphorylation enrichment: 0.556 for the first, 2.76 for the second.

First: SKNFTYIWWLN [PSG4_Y271_YF]
Second: DGTIVYTGLET [USH2A_Y4487]
The phosphorylation enrichment of the first is lower: 0.391 for the first, 0.465 for the second.

Compared with PTQLPYDHKWE [KIT_Y578], LQKNIYSEELR [LMNA_Y211_F206L] is higher in phosphorylation enrichment: 0.449 for the first, 4.38 for the second.

Going from TALFIYIRPKA [OR10C1_Y258] to GHEYIYVDPMQ [PDGFRA_Y574], the phosphorylation enrichment rises from 0.388 to 4.29.

First: GRVFVYHLSEQ [ITGAE_Y551_R552H_YF]
Second: RNLDTYQKRLR [PLA2G2D_Y126]
The phosphorylation enrichment of the first is lower: 0.44 for the first, 0.474 for the second.

Compared with KNKELYSDLFD [PDE10A_Y300], KKARAYGPGIE [FLNA_Y287] is lower in phosphorylation enrichment: 1.35 for the first, 0.399 for the second.

EEALYYLTRVE [SET_Y119_H118Y] showed a phosphorylation enrichment of 6.68.

test system: c-Abl (mouse); assay: as above

First: GLALRCLSDHS [VWF_Y1584_Y1584C]
Second: PVPKTYDMLNA [PKP2_Y108_K112N]
The phosphorylation enrichment of the first is lower: 0.718 for the first, 1.05 for the second.

Going from GLALRYLSDHS [VWF_Y1584] to KTTSGYAGGLS [KRT8_Y419], the phosphorylation enrichment falls from 0.501 to 0.456.

First: IGNGYYFHVFS [MYBPC3_Y1136_R1138H]
Second: VIGRMYDYHVL [RPF2_Y109]
The phosphorylation enrichment of the first is higher: 0.919 for the first, 0.65 for the second.

Compared with ELCSEYRKSRK [SPINK5_Y440], GVTLLYFGRFN [ADGRD1_Y85_YF] is higher in phosphorylation enrichment: 0.555 for the first, 0.817 for the second.

First: EQLLDYTRTVQ [INPP5E_Y439_R435Q]
Second: SKKSTYQALLD [GANC_Y43]
The phosphorylation enrichment of the first is higher: 0.614 for the first, 0.382 for the second.

Going from KIPGRYYETGS [PAX2_Y72_L69P] to EASGIYVKSII [PATJ_Y396], the phosphorylation enrichment falls from 0.689 to 0.677.

Going from GGRIDYIAGLV [APRT_Y60_D65V] to KASVDYIRKLQ [MITF_Y360], the phosphorylation enrichment falls from 0.573 to 0.503.

First: RQLEIYRASRP [ERCC4_Y594]
Second: PVLSLYASGRT [ACTA1_Y145_A140P]
The phosphorylation enrichment of the first is lower: 0.727 for the first, 1.31 for the second.

First: KILGTYYETGS [PAX2_Y72_R71T]
Second: RPGSGYTKIMR [PKLR_Y564_N566K]
The phosphorylation enrichment of the first is higher: 0.592 for the first, 0.396 for the second.

Compared with FMMMRYSQNIR [SDAD1_Y656_V660I], NSFKYYMSDDI [ATRX_Y204_C200S] is higher in phosphorylation enrichment: 0.61 for the first, 0.627 for the second.

Compared with LTMAPYSSVSL [FAM81A_Y24], ADEDIYGVLPA [LYNtide_2014] is higher in phosphorylation enrichment: 0.511 for the first, 2.19 for the second.

First: SKNFTYIWWLN [PSG4_Y271_YF]
Second: DGTIVYTGLET [USH2A_Y4487]
The phosphorylation enrichment of the first is higher: 0.78 for the first, 0.764 for the second.

Compared with PTQLPYDHKWE [KIT_Y578], LQKNIYSEELR [LMNA_Y211_F206L] is lower in phosphorylation enrichment: 0.655 for the first, 0.445 for the second.

Going from TALFIYIRPKA [OR10C1_Y258] to GHEYIYVDPMQ [PDGFRA_Y574], the phosphorylation enrichment rises from 0.624 to 8.98.

Compared with GRVFVYHLSEQ [ITGAE_Y551_R552H_YF], RNLDTYQKRLR [PLA2G2D_Y126] is higher in phosphorylation enrichment: 0.471 for the first, 0.762 for the second.

Going from KNKELYSDLFD [PDE10A_Y300] to KKARAYGPGIE [FLNA_Y287], the phosphorylation enrichment falls from 0.918 to 0.468.

With EEALYYLTRVE [SET_Y119_H118Y] the phosphorylation enrichment was 1.53.
